From publication PMC10243991
pKd: −log10 of the molar value.

Target: GST-MdPP2AC (apple (Malus × domestica Borkh.))
Test: MST; GST-MdPP2AC labelled with RED-NHS dye, 100 nM, in 0.05% PBS Tween buffer; MdSnRK2.6 titrated (3.81 × 10^−4 to 25 nM as printed); Monolith NT.115

MdSnRK2.6-His (enzyme)
pKd: 6.96
